“And” between values parts separate entries of the source, which are not always exact repeats. Equal entries are not always repeated.
Settings: whole UniProt chain shown
[1] = Vibrio harveyi, pH 7, 18 °C, Urea, CD, phosphate 50 mM, reversible: yes
[2] = Streptomyces tendae, pH 2, Thermal, DSC, Sodium phosphate 10 mM, Na2SO4 10 mM, reversible: yes
[3] = Streptomyces tendae, pH 5, 25 °C, Thermal, DSC, Sodium phosphate 10 mM, Na2SO4 10 mM, reversible: yes
[4] = Streptomyces tendae, pH 7, Thermal, DSC, Sodium phosphate 10 mM, Na2SO4 10 mM, reversible: yes
[5] = Thermus thermophilus, pH 7, 25 °C, GdnHCl, CD, Potassium phosphate 20 mM, potassium chloride 50 mM
[6] = Sus scrofa, pH 6.5, 20 °C, GdnHCl, Fluorescence, MES-NaOH 20 mM, NaCl 100 mM, reversible: yes
[7] = Thermus thermophilus (strain ATCC 27634 / DSM 579 / HB8), pH 7.4, 29 °C, Thermal, CD, Potassium phosphate 50 mM, reversible: Yes
[8] = Thermus thermophilus (strain ATCC 27634 / DSM 579 / HB8), pH 7.4, 35 °C, Thermal, CD, Potassium phosphate 50 mM, reversible: Yes
[9] = Thermus thermophilus (strain ATCC 27634 / DSM 579 / HB8), pH 7.4, Thermal, absorbance, Potassium buffer
[10] = Thermus thermophilus (strain ATCC 27634 / DSM 579 / HB8), pH 7.5, 25 °C, GdnHCl, Fluorescence, tris-HCl 20 mM, reversible: yes

B1: Inorganic pyrophosphatase wild type, P50308 (protein)
chain: MKLSPGKNAPDVVNVLVEIPQGSNIKYEYDDEEGVIKVDRVLYTSMNYPFNYGFIPGTLEEDGDPLDVLVITNYQLYPGSVIEVRPIGILYMKDEEGEDAKIVAVPKDKTDPSFSNIKDINDLPQATKNKIVHFFEHYKELEPGKYVKISGWGSATEAKNRIQLAIKRVSGGQ
For B1, which Tm (Sulfolobus acidocaldarius (strain ATCC 33909 / DSM 639 / JCM 8929 / NBRC 15157 / NCIMB 11770), pH 7, Thermal, CD, HEPES 20 mM, MgCl2 5 mM) is on record?
The Tm was 98 °C.

And the Tm (Sulfolobus acidocaldarius (strain ATCC 33909 / DSM 639 / JCM 8929 / NBRC 15157 / NCIMB 11770), pH 7, Thermal, CD, HEPES 20 mM)?
The Tm was 89 °C.

B2: Pilin wild type, Q9A1S2 (protein)
chain: MKLRHLLLTGAALTSFAATTVHGETVVNGAKLTVTKNLDLVNSNALIPNTDFTFKIEPDTTVNEDGNKFKGVALNTPMTKVTYTNSDKGGSNTKTAEFDFSEVTFEKPGVYYYKVTEEKIDKVPGVSYDTTSYTVQVHVLWNEEQQKPVATYIVGYKEGSKVPIQFKNSLDSTTLTVKKKVSGTGGDRSKDFNFGLTLKANQYYKASEKVMIEKTTKGGQAPVQTEASIDQLYHFTLKDGESIKVTNLPVGVDYVVTEDDYKSEKYTTNVEVSPQDGAVKNIAGNSTEQETSTDKDMTITFTNKKDFEVPTGVAMTVAPYIALGIVAVGGALYFVKKKNA
For B2, which Tm (Streptococcus pyogenes serotype M1, pH 8, Thermal, CD, potassium phosphate buffer 10 mM, transition: 2) is on record?
The Tm was 85.1 °C.

B3: Triosephosphate isomerase, glycosomal wild type, P04789 (protein)
chain: MSKPQPIAAANWKCNGSQQSLSELIDLFNSTSINHDVQCVVASTFVHLAMTKERLSHPKFVIAAQNAIAKSGAFTGEVSLPILKDFGVNWIVLGHSERRAYYGETNEIVADKVAAAVASGFMVIACIGETLQERESGRTAVVVLTQIAAIAKKLKKADWAKVVIAYEPVWAIGTGKVATPQQAQEAHALIRSWVSSKIGADVAGELRILYGGSVNGKNARTLYQQRDVNGFLVGGASLKPEFVDIIKATQ
What does the source list for B3?
Tm (Trypanosoma brucei brucei, pH 7, Thermal, CD, 3-(N-morpholino)propanesulfonic acid/dithiothreitol 20 mM/0.02 mM, EDTA 0.02 mM): 52.2 °C; Tm (Trypanosoma brucei brucei, pH 7.4, Thermal, CD, MOPS 20 mM, EDTA 1 mM, reversible: no): 51.4 °C; Tm (Trypanosoma brucei brucei, pH 7.5, Thermal, CD, TEA 0.9 mM, NaCl 1.2 mM): 44 °C and 48 °C

B4: Alkanal monooxygenase alpha chain wild type, P07740 (protein)
chain: MKFGNFLLTYQPPELSQTEVMKRLVNLGKASEGCGFDTVWLLEHHFTEFGLLGNPYVAAAHLLGATETLNVGTAAIVLPTAHPVRQAEDVNLLDQMSKGRFRFGICRGLYDKDFRVFGTDMDNSRALMDCWYDLMKEGFNEGYIAADNEHIKFPKIQLNPSAYTQGGAPVYVVAESASTTEWAAERGLPMILSWIINTHEKKAQLDLYNEVATEHGYDVTKIDHCLSYITSVDHDSNRAKDICRNFLGHWYDSYVNATKIFDDSDQTKGYDFNKGQWRDFVLKGHKDTNRRIDYSYEINPVGTPEECIAIIQQDIDATGIDNICCGFEANGSEEEIIASMKLFQSDVMPYLKEKQ
For B4, which denaturant m value [1] is on record?
The denaturant m value was 2.26 kcal/mol/M and 2.18 kcal/mol/M.

What about the unfolding free energy [1] of the same protein?
Its unfolding free energy is 2.36 kcal/mol and 6.04 kcal/mol.

What about the denaturant m value (Vibrio harveyi, pH 7, 18 °C, Urea, Fluorescence, NaH2PO4-K2HPO4 50 mM, transition: 3, reversible: yes) of the same protein?
The denaturant m value was 2.38 kcal/mol/M and 3.99 kcal/mol/M.

What about the denaturant m value (Vibrio harveyi, pH 7, 18 °C, Urea, Fluorescence, phosphate 50 mM, reversible: yes) of the same protein?
The denaturant m value was 2.47 kcal/mol/M.

B5: Alpha-amylase inhibitor HOE-467A wild type, P01092 (protein)
chain: MRVRALRLAALVGAGAALALSPLAAGPASADTTVSEPAPSCVTLYQSWRYSQADNGCAQTVTVKVVYEDDTEGLCYAVAPGQITTVGDGYIGSHGHARYLARCL
With B5 as the protein, how does the Tm [2] read?
The Tm was 68.3 °C.

And the “heat capacity change of unfolding” value [2]?
Its value is 0.69 kcal/mol/K.

What about the “unfolding enthalpy (calorimetric)” value [2] of the same protein?
The value was 56.4 kcal/mol.

What about the “heat capacity change of unfolding” value [3] of the same protein?
Its value is 0.69 kcal/mol/K.

What about the “unfolding enthalpy (calorimetric)” value [3] of the same protein?
The value was 26.3 kcal/mol.

What about the unfolding free energy [3] of the same protein?
The unfolding free energy was 6.7 kcal/mol.

And the Tm [4]?
The Tm was 81.6 °C.

What about the “heat capacity change of unfolding” value [4] of the same protein?
The value was 0.69 kcal/mol/K.

What about the “unfolding enthalpy (calorimetric)” value [4] of the same protein?
Its value is 65.6 kcal/mol.

B6: Cytochrome P450 119 wild type, Q55080 (protein)
chain: MYDWFSEMRKKDPVYYDGNIWQVFSYRYTKEVLNNFSKFSSDLTGYHERLEDLRNGKIRFDIPTRYTMLTSDPPLHDELRSMSADIFSPQKLQTLETFIRETTRSLLDSIDPREDDIVKKLAVPLPIIVISKILGLPIEDKEKFKEWSDLVAFRLGKPGEIFELGKKYLELIGYVKDHLNSGTEVVSRVVNSNLSDIEKLGYIILLLIAGNETTTNLISNSVIDFTRFNLWQRIREENLYLKAIEEALRYSPPVMRTVRKTKERVKLGDQTIEEGEYVRVWIASANRDEEVFHDGEKFIPDRNPNPHLSFGSGIHLCLGAPLARLEARIAIEEFSKRFRHIEILDTEKVPNEVLNGYKRLVVRLKSNE
Which Tm (Sulfolobus acidocaldarius (strain ATCC 33909 / DSM 639 / JCM 8929 / NBRC 15157 / NCIMB 11770), pH 7.4, Thermal, absorbance, Tris) does the source give for B6 here?
Its Tm is 91 °C.

B7: Divalent-cation tolerance protein CutA wild type, Q7SIA8 (protein)
chain: MEEVVLITVPSEEVARTIAKALVEERLAACVNIVPGLTSIYRWQGEVVEDQELLLLVKTTTHAFPKLKERVKALHPYTVPEIVALPIAEGNREYLDWLRENTG
Which Tm (Thermus thermophilus (strain ATCC 27634 / DSM 579 / HB8), pH 7, Thermal, DSC, potassium phosphate 50 mM, reversible: No) does the source give for B7 here?
Its Tm is 113 °C.

B8: Small ribosomal subunit protein bS6 wild type, P23370 (protein)
chain: MRRYEVNIVLNPNLDQSQLALEKEIIQRALENYGARVEKVEELGLRRLAYPIAKDPQGYFLWYQVEMPEDRVNDLARELRIRDNVRRVMVVKSQEPFLANA
Which results are given for B8?
denaturant m value [5]: 2.5 kcal/mol/M; unfolding free energy [5]: 8.5 kcal/mol

B9: Glutathione S-transferase omega-1 wild type, Q9N1F5 (protein)
chain: MSGGSARSLGKGSAPPGPVPEGLIRVYSMRFCPFAQRTLLVLNAKGIRHQVININLKNKPEWFFQKNPSGLVPVLENSQGQLIYESAITCEYLDEAYPGKKLLPDDPYEKACQKMVFELSSKVPPLLIRFIRRENEADCSGLKEELRKEFSKLEEVLTKKKTTYFGGSSLSMIDYLIWPWFERLEALELNECIDHTPKLKLWMAAMMKDPAVSALHIEPRDLRAFNDLYLQNSPEACDYGL
Which results are given for B9?
denaturant m value [6]: 11.1 kcal/mol/M; unfolding free energy [6]: 23.3 kcal/mol; denaturant m value (Sus scrofa, pH 6.5, 20 °C, Urea, Fluorescence, MES-NaOH 20 mM, NaCl 100 mM, reversible: yes): 4.6 kcal/mol/M

B10: Protein GrpE wild type, Q56236 (protein)
chain: MEERNHENTLEKDLEAVGQEAQALEERLKAAEEELKGLKDKYLRLLADFDNYRKRMEEELKAREREGVLKALRALLPVLDDLDRALEFAEASPESIRQGVRAIRDGFFRILAGLGVEEVPGEGEAFDPRYHEAVGLLPGEPGKVAKVFQRGFRMGEALVRPARVAVGEEKREEADLE
Which unfolding free energy (Thermus thermophilus (strain ATCC 27634 / DSM 579 / HB8), pH 7.5, 25 °C, GdnHCl, CD, Tris-HCl 20 mM, KCl 100 mM, reversible: yes) does the source give for B10 here?
Its unfolding free energy is 4.13 kcal/mol.

What about the Tm (Thermus thermophilus (strain ATCC 27634 / DSM 579 / HB8), pH 7.5, Thermal, DSC, Hepes-NaOH 20 mM, KCl 100 mM, reversible: yes) of the same protein?
The Tm was 106 °C.

B11: wild type, Q53W59 (protein)
chain: MKRLSLREAWPYLKDLQQDPLAVLLEWGRAHPRLFLPLPRFPLALIFDPEGVEGALLAEGTTKATFQYRALSRLTGRGLLTDWGKSWKEARKALKDPFLPKSVRGYREAMEEEAWAFFGEWRGEERDLDHEMLALSLRLLGRALFGKPLSPSLAEHALKALDRIMAQTRSPLALLDLAAEARFRKDRGALYREAEALIVHPPLSHLPRERALSEAVTLLVAGHETVASALTWSFLLLSHRPDWQKRVAESEEAALAAFQEALRLYPPAWILTRRLERPLLLGEDRLPQGTTLVLSPYVTQRLYFPEGEAFQPERFLAERGTPSGRYFPFGLGQRLCLGRDFALLEGPIVLRAFFRRFRLDPLPFPRVLAQVTLRPEGGLPARPREGVRA
Which “heat capacity change of unfolding” value [7] does the source give for B11 here?
The value was 1.15 kcal/mol/K.

What about the “unfolding enthalpy (van 't Hoff)” value [7] of the same protein?
The value was 71 kcal/mol.

And the unfolding free energy [7]?
The unfolding free energy was 5.74 kcal/mol.

What about the “heat capacity change of unfolding” value [8] of the same protein?
The value was 1.17 kcal/mol/K.

And the “unfolding enthalpy (van 't Hoff)” value [8]?
Its value is 61.7 kcal/mol.

And the unfolding free energy [8]?
Its unfolding free energy is 4.3 kcal/mol.

And the Tm (Thermus thermophilus (strain ATCC 27634 / DSM 579 / HB8), pH 7.4, Thermal, CD, Potassium phosphate 50 mM, reversible: Yes)?
The Tm was 87 °C and 83.7 °C.

And the Tm [9]?
The Tm was 88 °C.

What about the “heat capacity change of unfolding” value [9] of the same protein?
Its value is 1.14 kcal/mol/K.

And the “unfolding enthalpy (calorimetric)” value [9]?
The value was 71 kcal/mol.

B12: Streptogrisin-B wild type, P00777 (protein)
chain: MRIKRTSNRSNAARRVRTTAVLAGLAAVAALAVPTANAETPRTFSANQLTAASDAVLGADIAGTAWNIDPQSKRLVVTVDSTVSKAEINQIKKSAGANADALRIERTPGKFTKLISGGDAIYSSTGRCSLGFNVRSGSTYYFLTAGHCTDGATTWWANSARTTVLGTTSGSSFPNNDYGIVRYTNTTIPKDGTVGGQDITSAANATVGMAVTRRGSTTGTHSGSVTALNATVNYGGGDVVYGMIRTNVCAEPGDSGGPLYSGTRAIGLTSGGSGNCSSGGTTFFQPVTEALSAYGVSVY
With B12 as the protein, how does the unfolding free energy (Streptomyces griseus, pH 5, 0 °C, GdnHCl, Fluorescence, potassium acetate 10 mM) read?
Its unfolding free energy is 0.71 kcal/mol.

B13: Phosphoglycerate kinase wild type, P09403 (protein)
chain: MRTLLDLDPKGKRVLVRVDYNVPVQDGKVQDETRILESLPTLRHLLAGGASLVLLSHLGRPKGPDPKYSLAPVGEALRAHLPEARFAPFPPGSEEARREAEALRPGEVLLLENVRFEPGEEKNDPELSARYARLGEAFVLDAFGSAHRAHASVVGVARLLPAYAGFLMEKEVRALSRLLKDPERPYAVVLGGAKVSDKIGVIESLLPRIDRLLIGGAMAFTFLKALGGEVGRSLVEEDRLDLAKDLLGRAEALGVRVYLPEDVVAAERIEAGVETRVFPARAIPVPYMGLDIGPKTREAFARALEGARTVFWNGPMGVFEVPPFDEGTLAVGQAIAALEGAFTVVGGGDSVAAVNRLGLKERFGHVSTGGGASLEFLEKGTLPGLEVLEG
For B13, which denaturant m value [10] is on record?
Its denaturant m value is 2.7 kcal/mol/M.

What about the “denaturant midpoint (higher = more stable)” value [10] of the same protein?
Its value is 2.34 M.

And the unfolding free energy [10]?
Its unfolding free energy is 6.32 kcal/mol.

— FireProtDB
